The labels stand for the following.
B1: 2_d2 (VHH)
VHH: EVQLVESGGGQVQAGGSLRLSCVASERTFSYYDLAARAWFRQAPGKERELVSASTWNGGYTYYVDSVKGRFTVSTDDAGDTMYLQMNSLEPEDTAVYYCAARRAYSSDLHDYRTFDYWGQGTQVTVSS
notes: Nanobody against pIgR
B2: 1C2 (VHH)
VHH: EVQLVESGGGLAQPGGSLRLSCAASGFAFSSYWMYWVRQAPGKGLEWVSAISTGGGGTYYADSVKGRFTISRDNAKNTLYLQMNSLKPEDTARYYCARDEAPTFDYSGNYAYTGSDPNDYWGQGTQVTVSS
notes: Nanobody against pIgR
B3: 2_f3 (VHH)
VHH: EVQLVESGGGLVQAGGSLRLSCAASGRTFTIYTMGWFRQAPGKAREFISALRWSGGSTYTFYADSVKGRFTISRDNAKNTLYLQMNSLKSEDTAIYYCGMVDPRAPYMRPDSTDSYAYWGQGTQVTVSS
notes: Nanobody against pIgR
B4: 4C11 (VHH)
VHH: EVQLVESGGGLVQPGGSLRLSCAASGFTFSSYAMTWVRQGLGKGLEWVSIISGNGGSTSYADSVKGRFTISRDNAKNTLYLQMNSLKPEDTAVYYCAKWDGLGTLPGSQGTQVTVSS
notes: Nanobody against pIgR
B5: 1 E2 (VHH)
VHH: EVQLVESGGGLVQAGGSLRLSCVASGFILREYNMGWFRQAPGKEREIVAAIAWTGTNSYYVDSVKGRFTISRDDTKNTVYLQMNSLNPEDTGVYHCAAEGYVSNFPRSSADEYDYWGQGTQVTVSS
notes: Nanobody against pIgR
B6: 1B7 (VHH)
VHH: EVQLVESGGGLVQAGGSLRLSCAASGFTFDDYAIGWFRQAPGKEREWVSCISRSDGSTYYADSVKGRFTISSDNAKNTVYLQMNSLKPEDTAVYHCAADAIGSFPCPAGVYDYWGQGTQVTVSS
notes: Nanobody against pIgR
B7: 4G11 (VHH)
VHH: EVQLVESGGGLVQAGGSLRLSCAASGFTFDDYAIGWFRQAPGKEREGVSCISSRDGMTYYADSVKGRFTISSDNARNTVYLQMNSLKPEDTAVYYCAADLVGSFPCPVAAYDYWGQGTQVTVSS
notes: Nanobody against pIgR
B8: 4 E9 (VHH)
VHH: EVQLVESGGGLVQAGGSLRLSCAASGSILSTNDMGWYRQAPGNQRELVARISRGSSTIYTESVKGRFTISRDNAKNTVYLQMNSLKPEDTAVYYCNADMLPSDLSHGYYYRDYWGQGTQVTVSS
notes: Nanobody against pIgR
B9: 4_e11 (VHH)
VHH: EVQLVESGGGLVQAGGSLRLSCAASGFTFDDYAIGWFRQAPGKEREGVSCINNSDGSTYYADSVKGRFTISSDNAKNTVYLQMNSLKPEDTAVYYCAADFVGGSYCLFPTYNYWGQGTQVTVSS
notes: Nanobody against pIgR
B10: 1C7 (VHH)
VHH: EVQLVESGGGLVQPGGSLRLSCAASGFAFSRYGMYWVRQAPGKGLEWVSTINSGGDYIIYADSVKGRFTISRDNAKNTLYLQMNSLKPEDTAVYYCAEGYRGSEWPPPAFTLQRADFASWGQGTQVTVSS
notes: Nanobody against pIgR
B11: 49C5 (VHH)
VHH: EVQLVESGGGLVQAGGSLGLSCVASGRTFVSGGMGWFRQAPGKEREFVASIVWIGGRTYYADSVKGRFTISGDNAKSTVTLQMNSLKPEDTATYYCADGDLATGTYDYWGQGTQVTVSS
notes: Nanobody against FcgR1
B12: 49 E4 (VHH)
VHH: EVQLVESGGGLVQAGDSLTLSCVASGRTFNNYGMGWFRQAPGKEREFVASINWGNGKTYYANSVKDRFAISKDHAKNTVYLQMNSLKPEDTALYYCAAVSSNTETFDTWGQGIQVTVSS
notes: Nanobody against FcgR1
B13: 49D4 (VHH)
VHH: B12 VHH with T28R, N30S, N31A, N55D, K57N, T105I
notes: Nanobody against FcgR1
B14: 49F9 (VHH)
VHH: B12 VHH with S63P
notes: Nanobody against FcgR1
B15: 48D6 (VHH)
VHH: B12 VHH with N30S, N31A, N55G, K57N, T105I
notes: Nanobody against FcgR1
B16: 4_h1 (VHH)
VHH: EVQLVKSGGGLVQAGDSLRLSCAASGRTSSSVTMGWFRQAPGKERDFVAAISWSGGSTYYADSVKGRFTISRDNAKNTVYLQMNSLKPEDTAVYYCAAVVPSDPIIYYTDYVDYDYWGQGTQVTVSS
notes: Nanobody against pIgR
B17: 4_a7 (VHH)
VHH: EVQLVESGGGLVQAGGSLRLSCEDSGRTFGDYIMGWFRQAPGKERDFVAAISWTGDSTYYKYYSDSAKGRFTASRDNAKNTAYLQMNGLKPEDTAVYYCAARTFRIDYDPRTASTYNYWGQGIQVTVSS
notes: Nanobody against pIgR
B18: 1_g10 (VHH)
VHH: EVQLVESGGGLVQAGDSLRLSCAASGRTFSTYAMAWFRQAPGKDREFVAAISWSSDMTYYLDSVKGRFTISRDNAKNTVFLQMNSLKPEDTAVYYCASGAYYAGSSTSPYNYWGQGTQVTVSS
notes: Nanobody against pIgR
B19: 4_g6 (VHH)
VHH: B7 VHH with M57T, R76K
notes: Nanobody against pIgR
B20: 1D7 (VHH)
VHH: EVQLVESGGGLVQSGGSLRLSCAASGRAFNYYAMGWFRQAPGKERELVAVINWSGGTTSYADSVKGRFTISRSNAKNTVYLQMSSLKPEDTAVYYCAADSIYRTSKDYNYWGQGTQVTVSS
notes: Nanobody against pIgR
B21: 49 E10 (VHH)
VHH: B11 VHH with G8V, A14T, G19R, S50A, T93L
notes: Nanobody against FcgR1
B22: 48D11 (VHH)
VHH: B12 VHH with N30S, N55D, K57N, T105I
notes: Nanobody against FcgR1
B23: 49F4 (VHH)
VHH: B12 VHH with N30S, N31A, Y32N, N52A, N55D, K57N, T103S
notes: Nanobody against FcgR1

Numbering of substitutions follows the chain as printed.

T1 sequence (P01833 19-638): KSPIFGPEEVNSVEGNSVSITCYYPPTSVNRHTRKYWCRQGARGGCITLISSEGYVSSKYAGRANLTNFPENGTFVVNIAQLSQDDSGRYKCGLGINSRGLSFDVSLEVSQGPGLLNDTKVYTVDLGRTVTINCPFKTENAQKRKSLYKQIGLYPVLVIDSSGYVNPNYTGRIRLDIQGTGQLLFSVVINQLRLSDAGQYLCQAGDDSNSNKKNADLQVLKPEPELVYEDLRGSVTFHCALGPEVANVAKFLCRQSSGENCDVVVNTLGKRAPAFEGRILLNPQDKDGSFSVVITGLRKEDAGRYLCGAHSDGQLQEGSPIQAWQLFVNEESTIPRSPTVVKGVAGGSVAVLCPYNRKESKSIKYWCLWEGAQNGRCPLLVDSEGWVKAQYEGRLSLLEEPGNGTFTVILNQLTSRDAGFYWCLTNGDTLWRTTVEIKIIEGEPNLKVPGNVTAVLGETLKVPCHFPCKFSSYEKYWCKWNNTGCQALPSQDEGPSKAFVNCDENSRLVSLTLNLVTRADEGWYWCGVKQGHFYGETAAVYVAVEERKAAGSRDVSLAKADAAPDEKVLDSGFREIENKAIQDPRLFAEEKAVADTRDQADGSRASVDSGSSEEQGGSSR
T2 sequence (P12314 16-292): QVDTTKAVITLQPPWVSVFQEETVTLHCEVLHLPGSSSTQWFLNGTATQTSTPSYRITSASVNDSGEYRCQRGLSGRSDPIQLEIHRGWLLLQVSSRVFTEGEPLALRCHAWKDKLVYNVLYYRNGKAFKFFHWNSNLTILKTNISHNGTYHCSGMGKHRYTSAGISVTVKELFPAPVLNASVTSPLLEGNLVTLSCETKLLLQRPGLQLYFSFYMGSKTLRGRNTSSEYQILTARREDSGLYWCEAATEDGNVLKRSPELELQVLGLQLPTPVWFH

The first assay addresses T1, ectodomain of human pIgR (R&D Systems Cat #2717-PG) (human, UniProt P01833 19-638).
T1 construct: extracellular domain; Bought protein, immobilised on Maxisorp plates; also called pIgR ectodomain
Kind of assay: designation in the sequence table; clones from phage selection and ELISA screening on pIgR ectodomain.
For B1, the binding result was “binds”. The same measure, in the same setting: with B2 the entry was “binds”. The same measure, in the same setting: with B3 the entry was “binds”; with B4, “binds”. On to B5, for which the binding result is on record as “binds”.

B6: the binding result was “binds”. Still for that read-out and setting: with B7 the entry was “binds”; with B8, “binds”; with B9, “binds”. Still for that read-out and setting: with B10 the entry was “binds”.

Another assay concerns the target T2, ectodomain of human FcgR1 (R&D Systems Cat #1257-FC) (human, UniProt P12314 16-292).
T2 construct: extracellular domain; Bought protein, immobilised on Maxisorp plates; also called FcgR1 ectodomain; Fc gamma R1
Briefly: ELISA, FcgR1 ectodomain coated at 3 ug/ml, 10 ul periplasmic extract in 100 ul, anti-myc detection. The method, then: In short, 3 ug/ml FcgR1 ectodomain was immobilized on Maxisorp microtiter plates (Nunc) and free binding sites were blocked using 4% Marvel in PBS. Next, 10 ul of periplasmic extract containing Nanobody of the different clones in 100 ul 2% Marvel PBST were allowed to bind to the immobilized antigen. […] Binding specificity was determined based on OD values compared to controls having received no Nanobody (low control).
For orientation: ELISA stands for enzyme-linked immunosorbent assay.
As to B11, the binding result is given as “binds”. The same measure, in the same setting: with B12 the entry was “binds”; with B13, “binds”. Still for that read-out and setting: with B14 the entry was “binds”. On the same count and under the same terms, under B15 stands “binds”.

Another assay has as its target T1, ectodomain of human pIgR (R&D Systems …). Briefly: ELISA, pIgR ectodomain coated at 5 ug/ml, 10 ul periplasmic extract in 100 ul, anti-myc detection. The protocol: In short, 5 ug/ml pIgR ectodomain was immobilized on Maxisorp microtiter plates (Nunc) and free binding sites were blocked using 4% Marvel in PBS. Next, 10 ul of periplasmic extract containing Nanobody of the different clones in 100 ul 2% Marvel PBST were allowed to bind to the immobilized antigen. […] Binding specificity was determined based on OD values compared to controls having received no Nanobody (low control).
Turning to B16, the binding result is listed as “binds”.

With B17, the binding result is recorded as “binds”. Same read-out and setting: with B18 the entry was “binds”. Still for that read-out and setting: with B19 the entry was “binds”.

For a further assay the target is unchanged. Briefly: competition ELISA, pIgR ectodomain coated at 5 ug/ml, 1 ug/ml IgA preincubated with purified Nanobody at 1600, 200, 25 and 3.3 nM, bound IgA detected with anti-IgA; blocked ligand IgA.
As to B20, the “IC50 (read off the curve)” value was roughly 80 nM.

In the next assay the target is T2, ectodomain of human FcgR1 (R&D Systems …). Briefly: designation in the sequence table; clones from phage selection and ELISA screening on FcgR1 ectodomain.
Consider B21, for which the binding result is “binds”. Still for that read-out and setting: with B22 the entry was “binds”; with B23, “binds”.

The values are drawn from patent US20100136018A1 (Ablynx, published 2010).
